Results reported in publication PMC3832545 (PLoS ONE, 2013).

Key:
[1] = Plasma concentrations (pharmacokinetics) after sc injection in DIO-mice; format: in vivo, mouse
Experimental: The animal experiments were performed as described recently. […] Animal care and treatments were conducted in accordance with established guidelines and protocols approved by the Lady Davis Institute (protocol # 5951) and McGill University's Animal Ethics Committee. Mice were housed one mouse per cage with ad libitum access to tap water and high- or low fat diet, respectively, throughout the studies. […] The size of the tumor allografts was measured three times per week and the volume calculated using the following formula: length × width^2 × 0.52. Based on the tumor volume data for each mouse, we calculated the area under the tumor growth curves (tumor growth AUC). At termination of the experiments, mice were anesthetized with isoflurane. Blood was collected by cardiac puncture and immediately after euthanasia by cervical dislocation, samples of the liver, colon, gastrocnemius muscle and the MC38 cell tumor allografts were dissected out and snap-frozen in liquid nitrogen for later preparation of tissue lysate. Before experiments were initiated, the systemic levels of mouse insulin were measured using a Rat/Mouse Insulin ELISA kit (Millipore Corp., Bilerica, MA, USA), according to manufacturer's instructions. […] Mouse C-peptide was assayed with Rat/Mouse C-peptide 2 ELISA kit (Millipore), according to manufacturer's instructions. […] At termination of experiments whole blood was collected in EDTA-coated tubes (BD Biosciences) by cardiac puncture. […] Mouse C-peptide was assayed with Rat/Mouse C-peptide 2 ELISA kit (Millipore) according to manufacturer's instructions. […] The lower detection limit of the assay was 2 pM. […] Plate wells were coated with a mouse monoclonal anti-insulin antibody OXI005 (Novo Nordisk A/S) coupled to acceptor beads. […] Ten μl of this dilution were added to the wells. […] The lower detection limit of the assay was 233 pM.

[2] = test system: PI3K signalling pathway in MC38 cell allografts; experiment: Signalling in MC38 tumor allografts in vivo, Western blot; set-up: species or system mouse; details: MC38 tumor allografts collected 1 h after sc administration, DIO-mice
Experimental: We focused on different endpoints in these animal experiments and monitored tumor growth in all experiments, see Table 1. The animal experiments were performed as described recently. […] Animal care and treatments were conducted in accordance with established guidelines and protocols approved by the Lady Davis Institute (protocol # 5951) and McGill University's Animal Ethics Committee. Mice were housed one mouse per cage with ad libitum access to tap water and high- or low fat diet, respectively, throughout the studies. The temperature in the animal rooms was maintained at 20-25°C with a light/dark cycle of 14/10 hours. Mice were acclimatized for 7-10 days before experimental procedures were initiated. At experimental day 0, 2.0×10^5 (experiment A) or 5.0×10^5 (all other experiments) MC38 cells, suspended in 100 μl phosphate-buffered saline (PBS), were injected subcutaneously (sc) in the right flank of the mice. […] The size of the tumor allografts was measured three times per week and the volume calculated using the following formula: length × width^2 × 0.52. Based on the tumor volume data for each mouse, we calculated the area under the tumor growth curves (tumor growth AUC). At termination of the experiments, mice were anesthetized with isoflurane. […] Incubation with secondary antibody (horse radish peroxidase-conjugated goat anti-rabbit IgG (Santa-Cruz Biotechnology, Santa Cruz, CA, USA, cat. no 5401) and visualization of protein bands was done as described previously. The intensity of protein bands was quantified using the software ImagePro (BioRad). In each cell signalling experiment, band intensities were normalized to the mean of the vehicle-treated samples. IR and IGF-1R bands in the liver, muscle colon and MC38 cell allografts were normalized to mean band intensities in liver and muscle samples, respectively.

Substance	Plasma elimination half-life (t½) ([1]; mouse, in vivo, sc)	Activation of Akt, p70S6K and mTOR in tumor allografts [2]	Cmax relative to plasma concentrations of endogenous mouse insulin in hyperinsulinemic DIO-mice ([1]; mouse, in vivo, sc)	Time of maximal plasma concentration ([1]; mouse, in vivo, sc)	Plasma elimination half-life (t½) ([1]; DIO-mice, 600 nmol/kg sc, estimated from plasma concentrations […] min, 1 h and 6 h after injection)	Cmax (plasma) ([1]; DIO-mice, 600 nmol/kg sc, plasma, LOCI / wash-LOCI / ELISA)
IGF-1: recombinant human IGF-1 (Increlex, IPSEN Pharma GmbH)	approximately 70 min	pronounced activation				
insulin analog B10Asp [X10]	approximately 30 min	pronounced activation	approximately 1000 fold	15 min		
human insulin [HI]		pronounced activation			approximately 30 min	approximately 1000 nM
